For experiment [1], the target named is Rai14 (retinoic acid induced protein 14) (rat (endogenous in testis)) (UniProt Q5U312). In words: co-IP; testis lysates (800 µg protein) of rats 48 hr after a single dose of adjudin (50 mg/kg b.w., by gavage); anti-Rai14 IgG as precipitating antibody, blot with anti-actin antibody; compared with 0 hr.
Experiment [2] shares this target. In words: co-IP; testis lysates (800 µg protein) of rats 12 hr after a single dose of adjudin (50 mg/kg b.w., by gavage); anti-Rai14 IgG as precipitating antibody, blot with anti-actin antibody; compared with 0 hr.

UniProt Q5U312, sequence (Q5U312 whole entry): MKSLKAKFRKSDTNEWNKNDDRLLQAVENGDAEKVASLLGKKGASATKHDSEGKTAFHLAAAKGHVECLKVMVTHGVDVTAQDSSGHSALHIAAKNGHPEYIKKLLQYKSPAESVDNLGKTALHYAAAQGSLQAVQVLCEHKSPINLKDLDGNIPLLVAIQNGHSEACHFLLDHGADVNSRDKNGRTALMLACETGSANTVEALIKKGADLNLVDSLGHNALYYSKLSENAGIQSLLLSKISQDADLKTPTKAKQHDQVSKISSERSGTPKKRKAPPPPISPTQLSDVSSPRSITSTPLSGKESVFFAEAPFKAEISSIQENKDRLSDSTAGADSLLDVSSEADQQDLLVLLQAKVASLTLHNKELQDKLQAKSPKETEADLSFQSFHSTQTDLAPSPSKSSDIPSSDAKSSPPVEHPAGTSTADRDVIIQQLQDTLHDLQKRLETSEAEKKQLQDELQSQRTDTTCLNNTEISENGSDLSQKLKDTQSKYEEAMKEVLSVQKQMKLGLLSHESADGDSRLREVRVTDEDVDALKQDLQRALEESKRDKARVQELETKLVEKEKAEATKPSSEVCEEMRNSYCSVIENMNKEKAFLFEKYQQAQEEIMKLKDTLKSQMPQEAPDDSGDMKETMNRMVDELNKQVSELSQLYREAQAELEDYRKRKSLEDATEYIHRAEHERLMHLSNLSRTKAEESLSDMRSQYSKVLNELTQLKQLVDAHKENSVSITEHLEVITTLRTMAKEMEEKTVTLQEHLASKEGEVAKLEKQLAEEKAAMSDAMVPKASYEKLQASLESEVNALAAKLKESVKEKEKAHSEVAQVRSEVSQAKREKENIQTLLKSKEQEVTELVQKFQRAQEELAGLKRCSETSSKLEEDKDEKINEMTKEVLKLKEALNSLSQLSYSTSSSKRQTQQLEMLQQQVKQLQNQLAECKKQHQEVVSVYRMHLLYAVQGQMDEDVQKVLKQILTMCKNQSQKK

“actin (from UniProt P60711 1-375) (natural protein)”: the percent loss of the Rai14-actin co-IP against 0 hr in experiment [1] was determined as 90%. Moreover, the percent reduction of the Rai14-actin co-IP against 0 hr in experiment [2] came to 35%.

The values above are taken from PMC3614988.
